Results reported in US20240376170A1 (BRIGHT PEAK THERAPEUTICS, published 2024).
Bridges are numbered along the chain shown (N, C = ends). Primed or numbered codes have the meaning given here. [ ]: non-standard residue; d: D form. 8x polyethylene glycol‑amino = O-(8x polyethylene glycol-amino)-tyrosine, SITE 45; 9x polyethylene glycol‑azido = O-(9x polyethylene glycol-azido)-tyrosine, SITE 42; Ygp″ = O-(8x polyethylene glycol-amino)-tyrosine; Yn3″ = O-(9x polyethylene glycol-azido)-tyrosine; hSer = N[C@@H](CCO)C(=O)O; Nle = CCCC[C@H](N)C(=O)O

Target: T1, IL-2 receptor βγ complex (human, UniProt P14784 27-551; P31785 23-369)
T1 sequence (looked up) 1: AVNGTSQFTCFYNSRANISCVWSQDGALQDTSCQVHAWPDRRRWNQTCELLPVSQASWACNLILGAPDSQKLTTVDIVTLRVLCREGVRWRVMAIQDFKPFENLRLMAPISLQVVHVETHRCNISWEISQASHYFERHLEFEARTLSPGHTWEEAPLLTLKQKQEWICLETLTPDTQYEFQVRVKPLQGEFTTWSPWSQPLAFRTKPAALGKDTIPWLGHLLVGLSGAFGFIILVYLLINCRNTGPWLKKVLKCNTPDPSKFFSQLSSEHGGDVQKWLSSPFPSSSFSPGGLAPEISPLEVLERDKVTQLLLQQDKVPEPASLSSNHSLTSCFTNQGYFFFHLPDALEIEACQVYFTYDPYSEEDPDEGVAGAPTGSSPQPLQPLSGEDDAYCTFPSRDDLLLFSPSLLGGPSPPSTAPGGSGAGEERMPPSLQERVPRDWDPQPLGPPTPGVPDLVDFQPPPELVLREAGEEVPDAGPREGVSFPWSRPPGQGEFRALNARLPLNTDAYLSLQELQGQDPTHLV
T1 sequence (looked up) 2: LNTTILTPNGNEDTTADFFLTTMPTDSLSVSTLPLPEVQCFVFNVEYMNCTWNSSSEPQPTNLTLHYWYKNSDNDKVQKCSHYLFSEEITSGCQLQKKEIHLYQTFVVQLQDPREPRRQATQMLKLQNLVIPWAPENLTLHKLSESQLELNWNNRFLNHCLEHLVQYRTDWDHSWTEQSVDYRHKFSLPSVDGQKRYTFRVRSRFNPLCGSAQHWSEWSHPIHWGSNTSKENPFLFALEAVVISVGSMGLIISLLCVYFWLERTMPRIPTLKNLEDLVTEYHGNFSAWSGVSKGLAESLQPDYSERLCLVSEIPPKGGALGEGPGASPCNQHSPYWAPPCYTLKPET
Test: cell-based or functional assay

B1: CMP-316, uPa cleaved molecule (ligand)
chain: APTSSSTKKTQLQLEHLLLDLQKILNGINNYKNPKLTR[Nle]L[hSer]Y(9x polyethylene glycol‑azido)KFY(8x polyethylene glycol‑amino)[Nle]PKKATELKHLQCLEEELKPLEEVL[hSer]LAQSKNFHLRPRDLISNINVIVLELKGSETTF[hSer]CEYADETATIVEFLNRWITFSQSIISTLT
modifications: also: uPa cleavage product, not given here as a sequence, Lys23 side-chain attachment remnant unknown
Average EC50, pSTAT5 Assay in NK cells: 0.533 nM

B2: CMP-327, MMP2 cleaved molecule (ligand)
chain: APTSSSTKKTQLQLEHLLLDLQEILNGINNYKNPKLTR[Nle]L[hSer][Yn3″]KF[Ygp″][Nle]PKKATELKHLQCLEEELKPLEEVL[hSer]LAQSKNFHLRPRDLISNINVIVLELKGSETTF[hSer]CEYADETATIVEFLNRWITFSQSIISTLT
modifications: ends and bridges not checked; also: Lys9-Glu23 peptide bridge cut by MMP2, fragments left on side chains not given here
Average EC50, pSTAT5 Assay in NK cells: 0.85 nM

B3: CMP-327, Matriptase cleaved molecule (ligand)
chain: APTSSSTKKTQLQLEHLLLDLQEILNGINNYKNPKLTR[Nle]L[hSer][Yn3″]KF[Ygp″][Nle]PKKATELKHLQCLEEELKPLEEVL[hSer]LAQSKNFHLRPRDLISNINVIVLELKGSETTF[hSer]CEYADETATIVEFLNRWITFSQSIISTLT
modifications: ends and bridges not checked; also: Lys9-Glu23 peptide bridge cut by matriptase, fragments left on side chains not given here
Average EC50, pSTAT5 Assay in NK cells: 17.3 nM

B4: CMP-327 (ligand)
chain: APTSSSTKKTQLQLEHLLLDLQEILNGINNYKNPKLTR[Nle]L[hSer][Yn3″]KF[Ygp″][Nle]PKKATELKHLQCLEEELKPLEEVL[hSer]LAQSKNFHLRPRDLISNINVIVLELKGSETTF[hSer]CEYADETATIVEFLNRWITFSQSIISTLT
modifications: bridge 9-23; not fully specified (bridges); ends not checked; also: further groups not given here
Average EC50, pSTAT5 Assay in NK cells: 16.6 nM

B5: CMP-316, MMP2 cleaved molecule (ligand)
chain: APTSSSTKKTQLQLEHLLLDLQKILNGINNYKNPKLTR[Nle]L[hSer]Y(9x polyethylene glycol‑azido)KFY(8x polyethylene glycol‑amino)[Nle]PKKATELKHLQCLEEELKPLEEVL[hSer]LAQSKNFHLRPRDLISNINVIVLELKGSETTF[hSer]CEYADETATIVEFLNRWITFSQSIISTLT
modifications: also: K23 side chain attached to another sequence, m93 after MMP2 cleavage, product not given here as a sequence
Average EC50, pSTAT5 Assay in NK cells: 0.46 nM

B6: CMP-331 (ligand)
chain: APTSSSTKKTQLQLEHLLLDLQKILNGINNYKNPKLTR[Nle]L[hSer]Y(9x polyethylene glycol‑azido)KFY(8x polyethylene glycol‑amino)[Nle]PKKATELKHLQCLEEELKPLEEVL[hSer]LAQSKNFHLRPRDLISNINVIVLELKGSETTF[hSer]CEYADETATIVEFLNRWITFSQSIISTLT
modifications: bridge N-23; not fully specified (bridges)
Average EC50, pSTAT5 Assay in NK cells: 6.59 nM

B7: CMP-326, MMP2 cleaved molecule (ligand)
chain: APTSSSTKKTQLQLEHLLLDLQEILNGINNYKNPKLTR[Nle]L[hSer][Yn3″]KF[Ygp″][Nle]PKKATELKHLQCLEEELKPLEEVL[hSer]LAQSKNFHLRPRDLISNINVIVLELKGSETTF[hSer]CEYADETATIVEFLNRWITFSQSIISTLT
modifications: not fully specified; ends and bridges not checked; also: Lys9-Glu23 peptide bridge cut by MMP2, fragments left on side chains not given here
Average EC50, pSTAT5 Assay in NK cells: 16 nM

B8: CMP-316, Matriptase cleaved molecule (ligand)
chain: APTSSSTKKTQLQLEHLLLDLQKILNGINNYKNPKLTR[Nle]L[hSer]Y(9x polyethylene glycol‑azido)KFY(8x polyethylene glycol‑amino)[Nle]PKKATELKHLQCLEEELKPLEEVL[hSer]LAQSKNFHLRPRDLISNINVIVLELKGSETTF[hSer]CEYADETATIVEFLNRWITFSQSIISTLT
modifications: also: matriptase cleavage product, not given here as a sequence, Lys23 side-chain attachment remnant unknown
Average EC50, pSTAT5 Assay in NK cells: 0.617 nM

B9: CMP-326, uPa cleaved molecule (ligand)
chain: APTSSSTKKTQLQLEHLLLDLQEILNGINNYKNPKLTR[Nle]L[hSer][Yn3″]KF[Ygp″][Nle]PKKATELKHLQCLEEELKPLEEVL[hSer]LAQSKNFHLRPRDLISNINVIVLELKGSETTF[hSer]CEYADETATIVEFLNRWITFSQSIISTLT
modifications: not fully specified; ends and bridges not checked; also: Lys9-Glu23 peptide bridge cut by uPa, fragments left on side chains not given here
Average EC50, pSTAT5 Assay in NK cells: 18 nM

B10: CMP-327, uPa cleaved molecule (ligand)
chain: APTSSSTKKTQLQLEHLLLDLQEILNGINNYKNPKLTR[Nle]L[hSer][Yn3″]KF[Ygp″][Nle]PKKATELKHLQCLEEELKPLEEVL[hSer]LAQSKNFHLRPRDLISNINVIVLELKGSETTF[hSer]CEYADETATIVEFLNRWITFSQSIISTLT
modifications: ends and bridges not checked; also: after uPa cleavage, remnants of the Lys9–Glu23 peptide linker not given here
Average EC50, pSTAT5 Assay in NK cells: 12.1 nM

B11: CMP-326, Matriptase cleaved molecule (ligand)
chain: APTSSSTKKTQLQLEHLLLDLQEILNGINNYKNPKLTR[Nle]L[hSer][Yn3″]KF[Ygp″][Nle]PKKATELKHLQCLEEELKPLEEVL[hSer]LAQSKNFHLRPRDLISNINVIVLELKGSETTF[hSer]CEYADETATIVEFLNRWITFSQSIISTLT
modifications: not fully specified; ends and bridges not checked; also: Lys9-Glu23 peptide bridge cut by matriptase, fragments left on side chains not given here
Average EC50, pSTAT5 Assay in NK cells: 17.6 nM

B12: CMP-326 (ligand)
chain: APTSSSTKKTQLQLEHLLLDLQEILNGINNYKNPKLTR[Nle]L[hSer][Yn3″]KF[Ygp″][Nle]PKKATELKHLQCLEEELKPLEEVL[hSer]LAQSKNFHLRPRDLISNINVIVLELKGSETTF[hSer]CEYADETATIVEFLNRWITFSQSIISTLT
modifications: bridge 9-23; not fully specified (bridges); ends not checked; also: further groups not given here
Average EC50, pSTAT5 Assay in NK cells: 15.5 nM

B13: CMP-331, MMP2 cleaved molecule (ligand)
chain: APTSSSTKKTQLQLEHLLLDLQKILNGINNYKNPKLTR[Nle]L[hSer]Y(9x polyethylene glycol‑azido)KFY(8x polyethylene glycol‑amino)[Nle]PKKATELKHLQCLEEELKPLEEVL[hSer]LAQSKNFHLRPRDLISNINVIVLELKGSETTF[hSer]CEYADETATIVEFLNRWITFSQSIISTLT
modifications: not fully specified; also: N-terminus (pentanedioic acid-PEG9 linker) and Lys23 side chain attached to another sequence, what remains after MMP2 cleavage is not given here
Average EC50, pSTAT5 Assay in NK cells: 5.09 nM

B14: CMP-328 (ligand)
chain: APTSSSTKKTQLQLEHLLLDLQEILNGINNYKNPKLTR[Nle]L[hSer][Yn3″]KF[Ygp″][Nle]PKKATELKHLQCLEEELKPLEEVL[hSer]LAQSKNFHLRPRDLISNINVIVLELKGSETTF[hSer]CEYADETATIVEFLNRWITFSQSIISTLT
modifications: bridge 9-23; not fully specified (bridges); ends not checked
Average EC50, pSTAT5 Assay in NK cells: 9.23 nM

B15: CMP-328, MMP2 cleaved molecule (ligand)
chain: APTSSSTKKTQLQLEHLLLDLQEILNGINNYKNPKLTR[Nle]L[hSer][Yn3″]KF[Ygp″][Nle]PKKATELKHLQCLEEELKPLEEVL[hSer]LAQSKNFHLRPRDLISNINVIVLELKGSETTF[hSer]CEYADETATIVEFLNRWITFSQSIISTLT
modifications: ends and bridges not checked; also: after MMP2 cleavage, remnants of the Lys9–Glu23 peptide linker not given here
Average EC50, pSTAT5 Assay in NK cells: 1.48 nM
